From article PMC8916002 (Proceedings of the National Academy of Sciences of the …, 2022) come the findings set out here.

For one assay, the system named is JPH1. The experiment in a line: Cocrystallization of JPH1 with phospholipids. The note with it: high ionic strength. It counts as binding, human.
Assay [1] has as its target T1, JPH2 (1 to 161, 275 to 437) (human, UniProt Q9BR39-1 1-161; Q9BR39-1 275-437).
T1 chain (looked up): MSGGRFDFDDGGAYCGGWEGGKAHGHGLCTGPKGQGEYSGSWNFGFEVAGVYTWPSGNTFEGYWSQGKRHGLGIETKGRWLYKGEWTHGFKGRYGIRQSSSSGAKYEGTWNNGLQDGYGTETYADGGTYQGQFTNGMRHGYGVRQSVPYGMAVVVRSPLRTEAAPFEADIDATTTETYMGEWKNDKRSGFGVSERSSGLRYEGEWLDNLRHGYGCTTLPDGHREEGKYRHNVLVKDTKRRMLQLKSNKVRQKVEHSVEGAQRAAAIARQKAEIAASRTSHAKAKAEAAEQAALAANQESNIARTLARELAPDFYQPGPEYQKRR
The experiment in a line: ITC. In general terms: In ITC the heat of successive injections is recorded.

Assay [2] concerns the target T2, JPH1 (1 to 175, 265 to 442) (human, UniProt Q9HDC5 1-175; Q9HDC5 265-442).
T2 chain (looked up): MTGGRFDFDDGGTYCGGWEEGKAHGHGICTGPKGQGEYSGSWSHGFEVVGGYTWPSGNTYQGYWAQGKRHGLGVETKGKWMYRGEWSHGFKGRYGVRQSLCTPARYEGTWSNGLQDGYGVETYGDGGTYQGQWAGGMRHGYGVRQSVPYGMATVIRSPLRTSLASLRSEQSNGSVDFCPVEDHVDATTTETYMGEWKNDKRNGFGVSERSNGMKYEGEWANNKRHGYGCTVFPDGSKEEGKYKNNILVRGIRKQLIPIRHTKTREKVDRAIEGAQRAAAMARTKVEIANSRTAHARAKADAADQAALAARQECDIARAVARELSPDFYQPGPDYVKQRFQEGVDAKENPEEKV
The experiment in a line: ITC.

Assay [3] has as its target T3, MBP-tagged JPH2 (1 to 161, 275 to 437) (human, UniProt Q9BR39-1 1-161; Q9BR39-1 275-437).
T3 chain (looked up): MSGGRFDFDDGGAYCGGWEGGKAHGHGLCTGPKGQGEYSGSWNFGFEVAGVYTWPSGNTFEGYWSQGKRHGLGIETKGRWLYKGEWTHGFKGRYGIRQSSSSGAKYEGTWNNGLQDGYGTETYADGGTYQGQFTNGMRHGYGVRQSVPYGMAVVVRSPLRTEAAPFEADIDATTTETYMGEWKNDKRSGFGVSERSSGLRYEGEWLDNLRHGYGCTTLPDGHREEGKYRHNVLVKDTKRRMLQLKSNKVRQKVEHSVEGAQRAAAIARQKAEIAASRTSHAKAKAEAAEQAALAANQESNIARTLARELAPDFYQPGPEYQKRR
The experiment in a line: ITC.

As to `CCCCCCCC(=O)OC[C@H](COP(=O)(O)O[C@@H]1[C@H](O)[C@H](O)[C@@H](OP(=O)(O)O)[C@H](OP(=O)(O)O)[C@H]1O)OC(=O)CCCCCCC` [8:0 PI(4,5)P2], the “ligand electron density in JPH1 crystals” value in the assay on JPH1 (500 μM 8:0 PI(4,5)P2, diffraction data to 2.0 Å) was “no significant difference density could be identified”.

In the case of `CCCCCC(=O)OC[C@H](COP(=O)(O)OC[C@H](N)C(=O)O)OC(=O)CCCCC` [6:0 PS], the “ligand electron density in JPH1 crystals” value with JPH1 (2 mM 6:0 PS, diffraction data to 1.9 Å) is on record as “no significant difference density could be identified”; in the assay with JPH1 (2 mM 6:0 PS, diffraction data to 1.9 Å, listed as PS), “could not observe any density for a bound ligand”.

One may read the stoichiometry N as a count of units in the complex or per binding partner. The term Kd denotes the constant that tells how readily two partners part at equilibrium. A low value points to tighter binding. Consider EERIFRRTGGLFGQVD (peptide, UniProt P07293 1594-1609, looked up) [CaV1.1 peptide (rabbit CaV1.1 residues 1594 to 1609)], for which the “stoichiometry N” value in assay [1] and in assay [2] was 1 each time. Besides, the dissociation constant Kd in assay [2] was 1000 to 2000 nM; in assay [3], 1800 nM.
